Test [1] addresses Human EphA2 (in house, 0.95 mol biotin/monomer) (Human) (UniProt P29317). Briefly: SPR (Biacore), biotinylated human EphA2 on streptavidin chip. (Surface plasmon resonance follows binding to a sensor surface in real time, without labels.)
The target in test [2] is Mouse EphA2 Fc fusion (R&D Systems 639-A2) (Mouse) (UniProt Q03145). Description: SPR (Biacore), mouse EphA2-Fc captured by anti-human IgG.
Test [3] addresses Rat EphA2 (in house, 1.4 mol biotin/monomer) (Rat) (UniProt D3ZBN3). Briefly: SPR (Biacore), biotinylated rat EphA2 on streptavidin chip.
In a further test the target is T1, Mouse EphA2 (Ecto) (Mouse, UniProt Q03145 26-538).
T1 construct: extracellular domain
Description: FP competition vs Reference Compound C.

*1 amine or outer side, *2 acyl side, *3 side chain or, on linkers, in order; H or OH if unused. Bridges are numbered along the chain shown (N, C = ends). Where no end group is shown, it is not given here. [ ]: non-standard residue; d: D form. The star is where a group is joined. DM1‑SS‑ = DM1-SS- (SPDB) linker/toxin, COc1cc2cc(c1Cl)N(C)C(=O)C[C@H](OC(=O)[C@H](C)N(C)C(=O)CCSSCCCC(=O)*)[C@]1(C)O[C@H]1[C@H](C)[C@@H]1C[C@@](O)(NC(=O)O1)[C@H](OC)/C=C/C=C(\C)C2; TATA = O=C(CC[*:1])N1CN(C(=O)CC[*:2])CN(C(=O)CC[*:3])C1; DM1‑SS(SO3H)‑ = DM1-SS(SO3H)- (SO3H-SPDB) linker/toxin; DM1‑SS‑(Me)‑ = DM1-SS-(Me)- (SPP) linker/toxin; PABC = O=C(OCc1ccc(N[*:1])cc1)[*:2]; Glutaryl = O=C(CCCC(=O)[*:2])[*:1]; hArg = N=C(N)NCCCC[C@H](N)C(=O)O; Cit = NC(=O)NCCC[C@H](N)C(=O)O; βAla = NCCC(=O)O; Sar = CNCC(=O)O

This is an account of results in patent US20260124312A1 (Bicycle, published 2026).

Mouse EphA2 Fc fusion (R&D Systems 639-A2) (Mouse), sequence (Q03145 26-538): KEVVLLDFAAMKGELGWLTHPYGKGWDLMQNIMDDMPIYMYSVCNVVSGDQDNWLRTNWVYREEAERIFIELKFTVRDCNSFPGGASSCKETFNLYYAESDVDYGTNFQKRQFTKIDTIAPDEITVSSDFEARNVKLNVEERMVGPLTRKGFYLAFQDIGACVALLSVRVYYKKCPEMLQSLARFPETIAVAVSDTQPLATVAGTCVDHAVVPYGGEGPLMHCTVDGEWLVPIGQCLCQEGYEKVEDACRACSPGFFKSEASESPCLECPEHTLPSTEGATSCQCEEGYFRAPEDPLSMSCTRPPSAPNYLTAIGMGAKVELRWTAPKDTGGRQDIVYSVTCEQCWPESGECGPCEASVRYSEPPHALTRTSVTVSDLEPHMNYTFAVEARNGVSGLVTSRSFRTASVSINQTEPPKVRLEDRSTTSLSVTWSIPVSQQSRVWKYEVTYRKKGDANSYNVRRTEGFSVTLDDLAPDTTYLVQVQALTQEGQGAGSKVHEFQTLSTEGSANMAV
Human EphA2 (in house, 0.95 mol biotin/monomer) (Human), sequence (P29317 25-534 limits assumed): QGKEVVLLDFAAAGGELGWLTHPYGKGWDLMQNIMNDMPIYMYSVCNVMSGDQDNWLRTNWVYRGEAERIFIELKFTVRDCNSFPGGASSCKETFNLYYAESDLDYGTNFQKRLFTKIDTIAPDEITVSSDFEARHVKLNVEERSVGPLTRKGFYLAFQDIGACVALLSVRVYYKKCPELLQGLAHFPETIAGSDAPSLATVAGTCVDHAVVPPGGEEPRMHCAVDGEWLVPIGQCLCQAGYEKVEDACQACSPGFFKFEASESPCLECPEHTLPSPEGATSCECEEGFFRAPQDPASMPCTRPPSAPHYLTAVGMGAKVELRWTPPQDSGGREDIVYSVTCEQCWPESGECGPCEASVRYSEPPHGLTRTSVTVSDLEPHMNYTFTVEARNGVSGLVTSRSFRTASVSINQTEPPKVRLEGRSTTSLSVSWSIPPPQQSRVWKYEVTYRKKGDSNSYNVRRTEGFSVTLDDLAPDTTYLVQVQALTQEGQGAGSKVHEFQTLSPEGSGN
T1 sequence (Q03145 26-538): as the sequence (Q03145 26-538) above
Description for Mouse EphA2 (Ecto): The gain used for analysis was determined for each tracer at the end of the 60 minutes where there was no protein in the well. […] “Lig” was a defined value of the concentration of tracer used.

For the molecule {DM1‑SS‑(Me)‑}-[βAla][Sar][Sar][Sar][Sar][Sar][Sar][Sar][Sar][Sar][Sar]A[hArg]DCPLVNPLCLHPGWTC (linker 15-22-29 via TATA; not fully specified (C-terminus)) [BCY6032], in test [1], the Kd (in general, the concentration at which binding is half-saturated) was found to be 2.1 nM; the koff (usually a measure of how fast the partners let go of each other) was determined as 0.00527 s⁻¹; the association rate constant (kon) (in general, a measure of how fast the partners come together) came to 2.52e+06 M⁻¹ s⁻¹; the t1/2 came out at 2.2 min.

In test [1], {DM1‑SS‑}-[βAla][Sar][Sar][Sar][Sar][Sar][Sar][Sar][Sar][Sar][Sar]A[hArg]DCPLVNPLCLHPGWTC (linker 15-22-29 via TATA; not fully specified (C-terminus)) [BCY6031] showed a Kd of 1.99 nM, a koff of 0.00495 s⁻¹, a kon of 2.49e+06 M⁻¹ s⁻¹ and a t1/2 of 2.3 min.

As for {MMAE-PABC-Cit-Trp-Glutaryl}-[βAla][Sar][Sar][Sar][Sar][Sar][Sar][Sar][Sar][Sar][Sar]A[hArg]DCPLVNPLCLHPGWTC (linker 15-22-29 via TATA; not fully specified (C-terminus)) [BCY6034], in test [1], the Kd was 1.64 nM, the koff came to 0.00365 s⁻¹, the kon is 2.23e+06 M⁻¹ s⁻¹ and the t1/2 came out at 3.2 min.

With {DM1‑SS(SO3H)‑}-[βAla][Sar][Sar][Sar][Sar][Sar][Sar][Sar][Sar][Sar][Sar]A[hArg]DCPLVNPLCLHPGWTC (linker 15-22-29 via TATA; not fully specified (C-terminus)) [BCY6082], in test [2], the Kd turned out to be 18.3 nM, the koff was determined as 0.00597 s⁻¹, the kon turned out to be 327000 M⁻¹ s⁻¹ and the t1/2 was 1.9 min. In test [3], this molecule returned a Kd of 28.8 nM, a koff of 0.00364 s⁻¹, a kon of 126000 M⁻¹ s⁻¹ and a t1/2 of 3.2 min. Besides, in test [1], the Kd turned out to be 2.42 nM, the koff is 0.00242 s⁻¹, the kon is 987000 M⁻¹ s⁻¹ and the t1/2 worked out at 4.8 min.

With {MMAE-PABC-Cit-Val-Glutaryl}-[βAla][Sar][Sar][Sar][Sar][Sar][Sar][Sar][Sar][Sar][Sar]A[hArg]DCPLVNPLCLHPGWTC (linker 15-22-29 via TATA; not fully specified (C-terminus)) [BCY6033], in test [2], the Kd is 21.8 nM, the koff amounted to 0.00637 s⁻¹, the kon worked out at 292000 M⁻¹ s⁻¹ and the t1/2 stood at 1.8 min. In test [3], this molecule gave an equilibrium dissociation constant (Kd) of 166 nM, a koff of 0.00442 s⁻¹, a kon of 26700 M⁻¹ s⁻¹ and a t1/2 of 2.6 min. In test [1], this molecule came in with an equilibrium dissociation constant (Kd) of 3.41 nM, a koff of 0.00343 s⁻¹, a kon of 999000 M⁻¹ s⁻¹ and a t1/2 of 3.5 min.

On to ACPLVNPLCLHPGWTCLHG (linker 2-9-16 via TATA; not fully specified (C-terminus)) [Bicycle Compound 73], for which the affinity with Mouse EphA2 (Ecto) corresponds to a Ki of 7.27 nM.
